Consider one molecule from article PMC3226747 (Nature, 2011).

Where no end group is shown, it is not given here. [ ]: non-standard residue; d: D form. pGlu = O=C1CC[C@@H](C(=O)O)N1

For this test, the target named is T1, MitTxβ (Micrurus tener tener (Texas coral snake), UniProt G9I930 31-149, disulfide bonds).
T1 sequence: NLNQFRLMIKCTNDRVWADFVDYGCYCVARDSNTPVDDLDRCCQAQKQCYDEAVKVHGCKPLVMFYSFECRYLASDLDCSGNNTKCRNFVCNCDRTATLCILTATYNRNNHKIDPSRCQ
Briefly: ITC. For orientation: ITC needs no label: the signal is the heat of the interaction.

B1: MitTxα (natural protein)
chain: [pGlu]IRPAFCYEDPPFFQKCGAFVDSYYFNRSRITCVHFFYGQCDVNQNHFTTMSECNRVCHG
modifications: not fully specified (bridges); also: disulfide bonds, pairing not given here
Turning to B1, the affinity, expressed as Kd, was 0.0122 ± 0.0031 µM.

The Kd is the concentration at which binding is half-saturated. Higher therefore signals a looser complex.
